Data: the array DNA melting data of Ke et al.

Assay: melting temperature; melt of duplexes
Settings: sodium 0.0675 M; strand 1 µM

CGACGTGCTCGATGTGCTG+CAGCACATATGGCACGTCG ((((((((...((((((((+))))))))...))))))))
Tm: 50.5 °C

CGACGTGCTCGATGTGCTG+CAGCACATCAGGCACGTCG ((((((((..(((((((((+)))))))))..))))))))
Tm: 55.4 °C

CGACGTGCTCGATGTGCTG+CAGCACATCATGCACGTCG ((((((((..(((((((((+)))))))))..))))))))
Tm: 54.1 °C

CGACGTGCTCGATGTGCTG+CAGCACATCGCGCACGTCG ((((((((.((((((((((+)))))))))).))))))))
Tm: 59.6 °C

CGACGTGCTCGATGTGCTG+CAGCACATCTGGCACGTCG ((((((((..(((((((((+)))))))))..))))))))
Tm: 54.3 °C

CGACGTGCTCGATGTGCTG+CAGCACATCTTGCACGTCG ((((((((..(((((((((+)))))))))..))))))))
Tm: 53.3 °C

CGACGTGCTCGATGTGCTG+CAGCACATGCAGCACGTCG (((((((((..((((((((+))))))))..)))))))))
Tm: 52.1 °C

CGACGTGCTCGATGTGCTG+CAGCACATGGAGCACGTCG ((((((((((.((((((((+)))))))).))))))))))
Tm: 59.3 °C

CGACGTGCTCGATGTGCTG+CAGCACATGGCGCACGTCG ((((((((.(.((((((((+)))))))).).))))))))
Tm: 50.8 °C

CGACGTGCTCGATGTGCTG+CAGCACATGTCGCACGTCG ((((((((...((((((((+))))))))...))))))))
Tm: 48.2 °C

CGACGTGCTCGATGTGCTG+CAGCACATTAAGCACGTCG (((((((((..((((((((+))))))))..)))))))))
Tm: 51.9 °C

CGACGTGCTCGATGTGCTG+CAGCACATTAGGCACGTCG ((((((((...((((((((+))))))))...))))))))
Tm: 50.9 °C

CGACGTGCTCGATGTGCTG+CAGCACATTCGGCACGTCG ((((((((...((((((((+))))))))...))))))))
Tm: 52.3 °C

CGACGTGCTCGATGTGCTG+CAGCACATTCTGCACGTCG ((((((((...((((((((+))))))))...))))))))
Tm: 49.4 °C

CGACGTGCTCGATGTGCTG+CAGCACATTGAGCACGTCG ((((((((((.((((((((+)))))))).))))))))))
Tm: 60.7 °C

CGACGTGCTCGATGTGCTG+CAGCACATTGCGCACGTCG ((((((((.(.((((((((+)))))))).).))))))))
Tm: 52.4 °C

CGACGTGCTCGATGTGCTG+CAGCACATTGGGCACGTCG ((((((((.(.((((((((+)))))))).).))))))))
Tm: 55.7 °C

CGACGTGCTCGATGTGCTG+CAGCACATTTCGCACGTCG ((((((((...((((((((+))))))))...))))))))
Tm: 48.1 °C

CGACGTGCTCGATGTGCTG+CAGCACATTTGGCACGTCG ((((((((...((((((((+))))))))...))))))))
Tm: 50.3 °C

CGACGTGCTCTATGTGCTG+CAGCACATAAAGCACGTCG (((((((((.(((((((((+))))))))).)))))))))
Tm: 54 °C

CGACGTGCTCTATGTGCTG+CAGCACATAAGGCACGTCG ((((((((..(((((((((+)))))))))..))))))))
Tm: 52.2 °C

CGACGTGCTCTATGTGCTG+CAGCACATAATGCACGTCG ((((((((..(((((((((+)))))))))..))))))))
Tm: 50.4 °C

CGACGTGCTCTATGTGCTG+CAGCACATACCGCACGTCG ((((((((..(((((((((+)))))))))..))))))))
Tm: 48.5 °C

CGACGTGCTCTATGTGCTG+CAGCACATACGGCACGTCG ((((((((..(((((((((+)))))))))..))))))))
Tm: 49.7 °C

CGACGTGCTCTATGTGCTG+CAGCACATAGAGCACGTCG (((((((((((((((((((+)))))))))))))))))))
Tm: 63 °C

CGACGTGCTCTATGTGCTG+CAGCACATAGGGCACGTCG ((((((((.((((((((((+)))))))))).))))))))
Tm: 58.4 °C

CGACGTGCTCTATGTGCTG+CAGCACATAGTGCACGTCG ((((((((.((((((((((+)))))))))).))))))))
Tm: 54.1 °C

CGACGTGCTCTATGTGCTG+CAGCACATATAGCACGTCG (((((((((.(((((((((+))))))))).)))))))))
Tm: 54.3 °C

CGACGTGCTCTATGTGCTG+CAGCACATATTGCACGTCG ((((((((..(((((((((+)))))))))..))))))))
Tm: 50.9 °C

CGACGTGCTCTATGTGCTG+CAGCACATCATGCACGTCG ((((((((...((((((((+))))))))...))))))))
Tm: 48.5 °C

CGACGTGCTCTATGTGCTG+CAGCACATCGCGCACGTCG ((((((((.(.((((((((+)))))))).).))))))))
Tm: 48.3 °C

CGACGTGCTCTATGTGCTG+CAGCACATCTAGCACGTCG (((((((((..((((((((+))))))))..)))))))))
Tm: 50.6 °C

CGACGTGCTCTATGTGCTG+CAGCACATCTGGCACGTCG ((((((((...((((((((+))))))))...))))))))
Tm: 49.5 °C

CGACGTGCTCTATGTGCTG+CAGCACATGAAGCACGTCG (((((((((..((((((((+))))))))..)))))))))
Tm: 53 °C

CGACGTGCTCTATGTGCTG+CAGCACATGACGCACGTCG ((((((((...((((((((+))))))))...))))))))
Tm: 47 °C

CGACGTGCTCTATGTGCTG+CAGCACATGCCGCACGTCG ((((((((...((((((((+))))))))...))))))))
Tm: 48.2 °C

CGACGTGCTCTATGTGCTG+CAGCACATGCGGCACGTCG ((((((((...((((((((+))))))))...))))))))
Tm: 48.5 °C

CGACGTGCTCTATGTGCTG+CAGCACATGGAGCACGTCG ((((((((((.((((((((+)))))))).))))))))))
Tm: 59.7 °C

CGACGTGCTCTATGTGCTG+CAGCACATGGCGCACGTCG ((((((((.(.((((((((+)))))))).).))))))))
Tm: 51.6 °C

CGACGTGCTCTATGTGCTG+CAGCACATTAAGCACGTCG (((((((((..((((((((+))))))))..)))))))))
Tm: 51.1 °C

CGACGTGCTCTATGTGCTG+CAGCACATTACGCACGTCG ((((((((...((((((((+))))))))...))))))))
Tm: 47.8 °C

CGACGTGCTCTATGTGCTG+CAGCACATTCCGCACGTCG ((((((((...((((((((+))))))))...))))))))
Tm: 46.7 °C

CGACGTGCTCTATGTGCTG+CAGCACATTCGGCACGTCG ((((((((...((((((((+))))))))...))))))))
Tm: 48.7 °C

CGACGTGCTCTATGTGCTG+CAGCACATTTGGCACGTCG ((((((((...((((((((+))))))))...))))))))
Tm: 50.1 °C

CGACGTGCTCTATGTGCTG+CAGCACATTTTGCACGTCG ((((((((...((((((((+))))))))...))))))))
Tm: 49 °C

CGACGTGCTGAATGTGCTG+CAGCACATAAAGCACGTCG (((((((((..((((((((+))))))))..)))))))))
Tm: 55.5 °C

CGACGTGCTGAATGTGCTG+CAGCACATACAGCACGTCG ((((((((((.((((((((+)))))))).))))))))))
Tm: 58.6 °C

CGACGTGCTGAATGTGCTG+CAGCACATACCGCACGTCG ((((((((.(.((((((((+)))))))).).))))))))
Tm: 51.3 °C

CGACGTGCTGAATGTGCTG+CAGCACATAGGGCACGTCG ((((((((...((((((((+))))))))...))))))))
Tm: 50.7 °C

CGACGTGCTGAATGTGCTG+CAGCACATAGTGCACGTCG ((((((((...((((((((+))))))))...))))))))
Tm: 45.3 °C

CGACGTGCTGAATGTGCTG+CAGCACATATCGCACGTCG ((((((((...((((((((+))))))))...))))))))
Tm: 50.2 °C

CGACGTGCTGAATGTGCTG+CAGCACATCAGGCACGTCG ((((((((...((((((((+))))))))...))))))))
Tm: 53.5 °C

CGACGTGCTGAATGTGCTG+CAGCACATCCAGCACGTCG ((((((((((.((((((((+)))))))).))))))))))
Tm: 57.6 °C

CGACGTGCTGAATGTGCTG+CAGCACATCCCGCACGTCG ((((((((.(.((((((((+)))))))).).))))))))
Tm: 51 °C

CGACGTGCTGAATGTGCTG+CAGCACATCGGGCACGTCG ((((((((...((((((((+))))))))...))))))))
Tm: 50.9 °C

CGACGTGCTGAATGTGCTG+CAGCACATCGTGCACGTCG ((((((((...((((((((+))))))))...))))))))
Tm: 46.3 °C

CGACGTGCTGAATGTGCTG+CAGCACATCTCGCACGTCG ((((((((...((((((((+))))))))...))))))))
Tm: 50 °C

CGACGTGCTGAATGTGCTG+CAGCACATCTTGCACGTCG ((((((((...((((((((+))))))))...))))))))
Tm: 50.5 °C

CGACGTGCTGAATGTGCTG+CAGCACATGAAGCACGTCG (((((((((..((((((((+))))))))..)))))))))
Tm: 59.3 °C

CGACGTGCTGAATGTGCTG+CAGCACATGCAGCACGTCG ((((((((((.((((((((+)))))))).))))))))))
Tm: 59.7 °C

CGACGTGCTGAATGTGCTG+CAGCACATGCTGCACGTCG ((((((((.(.((((((((+)))))))).).))))))))
Tm: 53.5 °C

CGACGTGCTGAATGTGCTG+CAGCACATGTAGCACGTCG (((((((((..((((((((+))))))))..)))))))))
Tm: 54.3 °C

CGACGTGCTGAATGTGCTG+CAGCACATTCAGCACGTCG (((((((((((((((((((+)))))))))))))))))))
Tm: 64.4 °C

CGACGTGCTGAATGTGCTG+CAGCACATTCTGCACGTCG ((((((((.((((((((((+)))))))))).))))))))
Tm: 59.2 °C

CGACGTGCTGCATGTGCTG+CAGCACATAACGCACGTCG ((((((((...((((((((+))))))))...))))))))
Tm: 49.4 °C

CGACGTGCTGCATGTGCTG+CAGCACATACCGCACGTCG ((((((((.(.((((((((+)))))))).).))))))))
Tm: 50.7 °C

CGACGTGCTGCATGTGCTG+CAGCACATAGAGCACGTCG (((((((((..((((((((+))))))))..)))))))))
Tm: 52.3 °C

CGACGTGCTGCATGTGCTG+CAGCACATAGCGCACGTCG ((((((((...((((((((+))))))))...))))))))
Tm: 54.2 °C

CGACGTGCTGCATGTGCTG+CAGCACATATCGCACGTCG ((((((((...((((((((+))))))))...))))))))
Tm: 48.3 °C

CGACGTGCTGCATGTGCTG+CAGCACATATTGCACGTCG ((((((((...((((((((+))))))))...))))))))
Tm: 49.3 °C

CGACGTGCTGCATGTGCTG+CAGCACATCATGCACGTCG ((((((((...((((((((+))))))))...))))))))
Tm: 52.1 °C

CGACGTGCTGCATGTGCTG+CAGCACATCCAGCACGTCG ((((((((((.((((((((+)))))))).))))))))))
Tm: 55.9 °C
